Assay results as given in PMC4192513 (2014).

T1: Snu17p (residues 1-113) (S. cerevisiae, UniProt P40565 1-113)
T1 chain: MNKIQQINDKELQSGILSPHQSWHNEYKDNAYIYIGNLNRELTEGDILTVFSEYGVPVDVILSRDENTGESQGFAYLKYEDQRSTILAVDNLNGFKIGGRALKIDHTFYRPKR


Assays:
Snu17p (residues 1-113) [1] = target: T1, Snu17p (residues 1-113); experiment: ITC
Snu17p (residues 1-113) [2] = target: T1, Snu17p (residues 1-113); experiment: ITC; second site (KD2)
Snu17p (residues 1-113) [3] = target: T1, Snu17p (residues 1-113); experiment: ITC; first site (KD1)

| Kd (Snu17p (residues 1-113) [1]) [nM] | Kd (Snu17p (residues 1-113) [2]) [nM] | Kd (Snu17p (residues 1-113) [3]) [nM] | Binder |
| --- | --- | --- | --- |
| ~60000 |  |  | AIMPGSRWDGVHRS [Bud13p peptide (residues 225-238)] |
| 253 |  |  | ENRFAIMPGSRWDGVHRSNGFE [Bud13p peptide (residues 221-242)] |
|  | 234 | 6.3 | Bud13p (residues 201-266) (domain or fragment) not shown |
